Experimental data from article PMC10295924.

Molecular target: SFB-β-catenin (UniProt P35222)
Experiment: pull-down; HEK293T cells co-transfected with MYC-LEF1, SFB-β-catenin and OTUD7B-V5 or GFP-V5, treated with 20 mM lithium chloride for 24 h; cytoplasmic and nuclear lysates pulled down with S-protein beads; immunoblot, bands quantified with ImageJ

Sequence of UniProt P35222 (P35222 whole entry): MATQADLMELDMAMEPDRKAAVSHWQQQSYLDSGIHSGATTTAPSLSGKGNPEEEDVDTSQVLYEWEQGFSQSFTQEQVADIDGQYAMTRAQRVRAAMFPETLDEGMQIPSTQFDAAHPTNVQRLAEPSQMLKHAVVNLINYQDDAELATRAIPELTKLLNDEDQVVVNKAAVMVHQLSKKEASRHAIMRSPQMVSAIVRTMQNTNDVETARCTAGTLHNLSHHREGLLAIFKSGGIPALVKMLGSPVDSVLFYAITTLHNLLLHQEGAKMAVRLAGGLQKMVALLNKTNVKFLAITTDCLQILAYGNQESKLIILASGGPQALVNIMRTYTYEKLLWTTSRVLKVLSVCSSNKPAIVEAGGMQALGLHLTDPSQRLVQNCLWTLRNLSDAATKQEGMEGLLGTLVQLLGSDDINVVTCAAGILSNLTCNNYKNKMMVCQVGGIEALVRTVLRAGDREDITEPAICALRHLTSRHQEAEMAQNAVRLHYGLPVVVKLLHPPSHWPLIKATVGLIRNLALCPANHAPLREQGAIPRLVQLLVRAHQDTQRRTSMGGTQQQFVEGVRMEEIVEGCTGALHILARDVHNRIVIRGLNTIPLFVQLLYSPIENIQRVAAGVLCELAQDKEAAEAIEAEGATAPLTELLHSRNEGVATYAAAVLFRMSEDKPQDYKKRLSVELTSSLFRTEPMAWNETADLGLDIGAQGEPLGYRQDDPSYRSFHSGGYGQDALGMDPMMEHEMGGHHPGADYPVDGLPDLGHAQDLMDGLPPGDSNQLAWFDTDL

fold increase of β-catenin-bound LEF1 in the nucleus with OTUD7B-V5 against GFP-V5: 4.82 fold
Substance: MYC-LEF1 (Lymphoid enhancer-binding factor 1), full length (natural protein)
